The text below walks through data of article PMC9771711 (Science (New York, N.Y.), 2021).

This test concerns the target CCHFV Gc^1579 (Crimean-Congo hemorrhagic fever virus, …). The experiment in a line: BLI. Background: BLI is a label-free optical method that tracks binding on a fibre tip over time.

B1: ADI-36121 (as used in BLI) (antibody, V domains shown)
VH: EVQLLESGGDLVQPGGSLRLSCAASGFTFSSYVMSWVRQAPGKGLEWVSVIYRGGSTKYADSVKGRFTISRDDSKNTLYLQMNSLRVEDTAVYYCVKDPKAWLEPEWWGQGTLVTVSS
VL: DIQMTQSPSSLSASVGDRVTITCRASQSISKYLSWFQQKPGKAPNLLIYAASYLQSGVPSRFSGSGSGTDFTLTISSLQPEDFATYYCQQSYSNPRTFGQGTKVEIK
Turning to B1, the binding result is given as “binds”.
